Data reported in patent US20250073334A1 (University of California, published 2025).

Assays:
[1] = target: SpyCatcher-H5 hemagglutinin construct (avian influenza A); test: SpyTag/SpyCatcher reaction, SDS-PAGE
[2] = target: SpyCatcher-CBU1910 fusion protein (Coxiella burnetii); test: SpyTag/SpyCatcher conjugation, SDS-PAGE

B1: CpG-ST-E2 nanoparticle (ST-E2 with CpG 1826 conjugated in the internal cavity) (other)
chain: MAHIVMVDAYKPTKGSGTAGGGSGSLSVPGPAAAEEKAAPAAAKPATTEGEFPETREKMSGIRRAIAKAMVHSKHTAPHVTLMDEADVTKLVAHRKKFKAIAAEKGIKLTFLPYVVKALVSALREYPVLNTSIDDETEEIIQKHYYNIGIAADTDRGLLVPVIKHADRKPIFALAQEINELAEKARDGKLTPGEMKGASCTITNIGSAGGQWFTPVINHPEVAILGIGRIAEKPIVRCGEIVAAPMLALSLSFDHRMIDGATAQKALNHIKRLLSDPELLLMEA
binding result [1]: binds | binding result [2]: binds
